Molecular target: T1, biotinylated CD59 (Homo sapiens, UniProt P13987)
T1 construct: Recombinant soluble human CD59 with an additional C-terminal cysteine residue
T1 sequence (P13987 26-102 limits assumed): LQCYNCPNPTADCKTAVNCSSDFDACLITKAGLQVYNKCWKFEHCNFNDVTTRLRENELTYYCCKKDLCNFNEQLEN
Assay: mRNA-display cyclic peptide screen against CD59-biotin, NGS abundance after 6th selection round
Details: for Percentage Seq I: counts normalised by total counts of sample Seq I; for Percentage Seq I / Percentage Seq II: percentage of the pool; for Percentage Seq I / Percentage Seq II / Percentage Average / Percentage of the pool, averaged across the two sequencing samples / Percentage of the pool, Seq I / Percentage of the pool, Seq II: sheet R6; for Percentage Seq II: counts normalised by total counts of sample Seq II; for Percentage Average: percentage of the pool averaged across the two sequencing samples; for Counts Seq I / Counts Seq II: raw NGS counts of peptide sequence; for Counts Seq I: sequencing sample Seq I; for Counts Seq I / Counts Seq II / Counts (raw counts for peptide sequence), Seq I / Counts (raw counts for peptide sequence), Seq II: sheet R6 (6th selection round); for Counts Seq II: sequencing sample Seq II; for Counts (raw counts for peptide sequence), Seq I: NGS sample Seq I; for Counts (raw counts for peptide sequence), Seq II: NGS sample Seq II; for Percentage of the pool, averaged across the two sequencing samples: average of Seq I and Seq II; for Percentage of the pool, Seq I: counts normalised by total counts of NGS sample Seq I; for Percentage of the pool, Seq II: counts normalised by total counts of NGS sample Seq II
Method in brief: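 Peptide–mRNA fusions were made by in vitro translation with a customised PURE express kit. The kit lacked release factor 1 and methionine and was supplemented with […] initiator tRNA carrying N-chloroacetyl-d-tyrosine. Thioether macrocycles were formed, then enriched and amplified over iterative rounds on CD59-biotin immobilised on streptavidin beads. NGS read counts per sequence were recorded after the 6th selection round.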

| Sequence | Percentage Seq I [%] | Percentage Seq II [%] | Percentage Average [%] | Counts Seq I | Counts Seq II | Counts (raw counts for peptide sequence), Seq I | Counts (raw counts for peptide sequence), Seq II | Percentage of the pool, averaged across the two sequencing samples [%] | Percentage of the pool, Seq I [%] | Percentage of the pool, Seq II [%] |
| --- | --- | --- | --- | --- | --- | --- | --- | --- | --- | --- |
| LCYVKGSKDFT | 0.027 | 0.019 | 0.023 | 120 | 8 | – | – | – | – | – |
| GYLNECHTLYTR | 0.629 | 0.645 | 0.637 | 2754 | 278 | – | – | – | – | – |
| YARGNNASQFF | 0.089 | 0.088 | 0.089 | 391 | 38 | – | – | – | – | – |
| CFSRRLTAGAI | 2.075 | 2.091 | 2.083 | 9078 | 901 | – | – | – | – | – |
| CFSNRISGPAV | 0.197 | 0.214 | 0.205 | 864 | 92 | – | – | – | – | – |
| HVFGNRSYTRG | – | – | – | – | – | 46 | 7 | 0.013 | 0.011 | 0.016 |
| HVFGNRSSTRG | – | – | – | – | – | 69 | 6 | 0.015 | 0.016 | 0.014 |
| SAWGNRYIAYY | – | – | – | – | – | 47 | 6 | 0.012 | 0.011 | 0.014 |
| IALGDRTFSFG | 0.366 | 0.334 | 0.350 | 1603 | 144 | – | – | – | – | – |
| CYGGRTFIYAWL | – | – | – | – | – | 35 | 8 | 0.013 | 0.008 | 0.019 |
| CFIRRSIESGTA | – | – | – | – | – | 56 | 10 | 0.018 | 0.013 | 0.023 |
| CEALLRRGWD | 0.094 | 0.079 | 0.087 | 413 | 34 | – | – | – | – | – |
| SWQNECFRLRT | 0.013 | 0.026 | 0.019 | 58 | 11 | – | – | – | – | – |
| GPRNECHSQFQN | 0.092 | 0.086 | 0.089 | 401 | 37 | – | – | – | – | – |
| HVYGNRSFTRG | – | – | – | – | – | 97 | 5 | 0.017 | 0.022 | 0.012 |
| FVRGDLYSVLS | – | – | – | – | – | 43 | 4 | 0.010 | 0.010 | 0.009 |
| CYAAGSASWSRG | – | – | – | – | – | 65 | 6 | 0.014 | 0.015 | 0.014 |
| CYGGRTFIYAWT | 0.043 | 0.035 | 0.039 | 190 | 15 | – | – | – | – | – |
| FITGNRDHTRG | 0.018 | 0.026 | 0.022 | 78 | 11 | – | – | – | – | – |
